# Laboratory results taken from the supplement of paper PMC10567573.
# B1: EFHC1 (parent)
# chain: NIYYYLEDDSMSVIEPVVENSGIL
# Variants of: B1
# Experiment: protein stability index of a GFP-peptide fusion (GPS, HEK-293T) (PSI 1-6); higher = more stable
# Conditions: c terminus: a fixed tail appended
# 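Also: lentivirally expressed fusions sorted by FACS into six bins by GFP to DsRed ratio, PSI derived from sequencing read proportions per bin multiplied by bin number.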
row,Variant,protein stability index
1,NIYYYLEDDSMSVIEPVVENSDIL,2.44
2,NIYYYLEDDSMSVIEPVVENSAIL,2.19
3,NIYYYLEDDSMSVIEPVVENSRIL,1.55
4,NIYYYLEDDSMSVIEPVVENSQIL,1.82
5,NIYYYLEDDSMSVIEPVVENSHIL,1.71
6,NIYYYLEDDSMSVIEPVVENSIIL,1.81
7,NIYYYLEDDSMSVIEPVVENSYIL,1.5
8,NIYYYLEDDSMSVIEPVVENSNIL,2.25
9,NIYYYLEDDSMSVIEPVVENSEIL,2.71
10,NIYYYLEDDSMSVIEPVVENSMIL,1.46
11,NIYYYLEDDSMSVIEPVVENSLIL,1.51
12,NIYYYLEDDSMSVIEPVVENSCIL,1.62
13,NIYYYLEDDSMSVIEPVVLNSGIL,1.42
14,NIYYYLEDDSMSVIEPVVDNSGIL,2.01
15,NIYYYLEDDSMSVIEPVVANSGIL,1.59
16,NIYYYLEDDSMSVIEPVVPNSGIL,2.34
17,NIYYYLEDDSMSVIEPVVCNSGIL,1.39
18,NIYYYLEDDSMSVIEPVVNNSGIL,1.69
19,NIYYYLEDDSMSVIEPVVHNSGIL,2.01
20,NIYYYLEDDSMSVIEPVVGNSGIL,1.74
21,NIYYYLEDDSMSVIEPVVINSGIL,1.77
22,NIYYYLEDDSMSVIEPVVSNSGIL,1.35
23,NIYYYLEDDSMSVIEPVVVNSGIL,2
24,NIYYYLEDDSMSVIEPVVQNSGIL,2.16

row,Variant,protein stability index
1,NIYYYLEDDSMSVIEPVVRNSGIL,1.67
2,NIYYYLEDDSMSVIEPVVKNSGIL,2.23
3,NIYYYLEDDSMSVIEPVVFNSGIL,1.89
4,NIYYYLEDDSMSVIEPVVYNSGIL,2.53
5,NIYYYLEDDSMSVIEPVVTNSGIL,1.66
6,NIYYYLEDDSMSVIEPVVMNSGIL,1.86
7,NIYYYLEDDSMSVIEPVCENSGIL,1.82
8,NIYYYLEDDSMSVIEPVHENSGIL,2.11
9,NIYYYLEDDSMSVIEPVRENSGIL,1.92
10,NIYYYLEDDSMSVIEPVAENSGIL,2.19
11,NIYYYLEDDSMSVIEPVMENSGIL,1.66
12,NIYYYLEDDSMSVIEPVGENSGIL,3.04
13,NIYYYLEDDSMSVIEPVWENSGIL,1.13
14,NIYYYLEDDSMSVIEPVYENSGIL,1.67
15,NIYYYLEDDSMSVIEPVPENSGIL,2.38
16,NIYYYLEDDSMSVIEPVFENSGIL,1.85
17,NIYYYLEDDSMSVIEPVNENSGIL,2.6
18,NIYYYLEDDSMSVIEPVTENSGIL,2.23
19,NIYYYLEDDSMSVIEPVIENSGIL,2.23
20,NIYYYLEDDSMSVIEPVQENSGIL,2.38
21,NIYYYLEDDSMSVIEPVDENSGIL,2.99
22,NIYYYLEDDSMSVIEPVLENSGIL,2.16
23,NIYYYLEDDSMSVIEPVKENSGIL,2.33
24,NIYYYLEDDSMSVIEPVSENSGIL,2.67

row,Variant,protein stability index
1,NIYYYLEDDSMSVIEPVEENSGIL,2.69
2,NIYYYLEDDSMSVIEPNVENSGIL,1.76
3,NIYYYLEDDSMSVIEPLVENSGIL,1.74
4,NIYYYLEDDSMSVIEPKVENSGIL,2.31
5,NIYYYLEDDSMSVIEPWVENSGIL,1.94
6,NIYYYLEDDSMSVIEPSVENSGIL,1.88
7,NIYYYLEDDSMSVIEPQVENSGIL,2.41
8,NIYYYLEDDSMSVIEPMVENSGIL,2.07
9,NIYYYLEDDSMSVIEPYVENSGIL,1.72
10,NIYYYLEDDSMSVIEPTVENSGIL,2.32
11,NIYYYLEDDSMSVIEPRVENSGIL,1.98
12,NIYYYLEDDSMSVIEPPVENSGIL,2.85
13,NIYYYLEDDSMSVIEPVVEDSGIL,1.7
14,NIYYYLEDDSMSVIEPVVEASGIL,1.69
15,NIYYYLEDDSMSVIEPVVEFSGIL,1.48
16,NIYYYLEDDSMSVIEPVVEESGIL,2.46
17,NIYYYLEDDSMSVIEPVVEGSGIL,2.77
18,NIYYYLEDDSMSVIEPVVEQSGIL,1.67
19,NIYYYLEDDSMSVIEPVVETSGIL,1.71
20,NIYYYLEDDSMSVIEPVVEHSGIL,1.79
21,NIYYYLEDDSMSVIEPVVEVSGIL,2.71
22,NIYYYLEDDSMSVIEPVVECSGIL,1.93
23,NIYYYLEDDSMSVIEPVVEPSGIL,2.95
24,NIYYYLEDDSMSVIEPVVEWSGIL,2.37

row,Variant,protein stability index
1,NIYYYLEDDSMSVIEPVVEKSGIL,2.06
2,NIYYYLEDDSMSVIEPVVERSGIL,1.33
3,NIYYYLEDDSMSVIEPVVESSGIL,2.13
4,NIYYYLEDDSMSVIEPVVELSGIL,3.52
5,NIYYYLEDDSMSVIEPVVENIGIL,1.48
6,NIYYYLEDDSMSVIEPVVENMGIL,1.78
7,NIYYYLEDDSMSVIEPVVENHGIL,2.09
8,NIYYYLEDDSMSVIEPVVENYGIL,1.39
9,NIYYYLEDDSMSVIEPVVENDGIL,2.4
10,NIYYYLEDDSMSVIEPVVENKGIL,2.12
11,NIYYYLEDDSMSVIEPVVENEGIL,2.31
12,NIYYYLEDDSMSVIEPVVENLGIL,2.03
13,NIYYYLEDDSMSVIEPVVENNGIL,2.33
14,NIYYYLEDDSMSVIEPVVENVGIL,1.6
15,NIYYYLEDDSMSVIEPVVENRGIL,1.74
16,NIYYYLEDDSMSVIEPVVENCGIL,2.57
17,NIYYYLEDDSMSVIEPVVENPGIL,2.4
18,NIYYYLEDDSMSVIEPVVENFGIL,1.45
19,NIYYYLEDDSMSVIEPVVENTGIL,1.82
20,NIYYYLEDDSMSVIEPVVENQGIL,2.6
21,NIYYYLEDDSMSVIEPVVENGGIL,2.23
22,NIYYYLEDDSMSVIEPVVENAGIL,1.76
